Biological target: T1, COVID-19 nucleocapsid protein (N-protein) (severe acute respiratory syndrome …, UniProt P0DTC9 1-419)
T1 construct: also called nucleocapsid protein (N-protein) of severe acute respiratory syndrome coronavirus 2 (SARS-CoV-2)
Test: bio-layer interferometry (BLI)

AYTDCTTDFCNNRYVVNRCA (Ci, Cii and Ciii cysteines covalently bound to TBMT scaffold) [BCY18974] showed a Kd of 0.0206 µM.

Work on ACTTDFCNDRYITELCA (Ci, Cii and Ciii cysteines covalently bound to TBMT scaffold) [BCY17632] yielded a Kd of 2.6 µM.

For ACSVGYCPLTNTFCA (Ci, Cii and Ciii cysteines covalently bound to TBMT scaffold) [BCY16572], the Kd was 1.66 µM.

For ACTTDFCNNRYVVNQCSYPR (Ci, Cii and Ciii cysteines covalently bound to TBMT scaffold) [BCY18973], the Kd was 0.225 µM.

With ACPVRIEYPICDTSICA (Ci, Cii and Ciii cysteines covalently bound to TBMT scaffold) [BCY16582] the Kd was 1.79 µM.

For ACTTDFCNNRYVTQRCA (Ci, Cii and Ciii cysteines covalently bound to TBMT scaffold) [BCY17629], the Kd was 0.0417 µM.

In the case of ACWTDFCNNRYVTQRCA (Ci, Cii and Ciii cysteines covalently bound to TBMT scaffold) [BCY17634], the Kd is reported as 0.0642 µM.

For ACLVDVCEITGVQIRCA (Ci, Cii and Ciii cysteines covalently bound to TATA scaffold) [BCY18171], the Kd was 5.61 µM.

With NQLPCLTDFCNNRYVVNRCA (Ci, Cii and Ciii cysteines covalently bound to TBMT scaffold) [BCY18992] the Kd was 0.0197 µM.

QYESCTTDFCNNRYVVNRCA (Ci, Cii and Ciii cysteines covalently bound to TBMT scaffold) [BCY18975] showed a Kd of 0.0638 µM.

For ACTTDFCNDRYIVNSCA (Ci, Cii and Ciii cysteines covalently bound to TBMT scaffold) [BCY17630], the Kd was 0.331 µM.

ACTVDVCLLTGLHIPCA (Ci, Cii and Ciii cysteines covalently bound to TATA scaffold) [BCY19454] gave a Kd of 7.11 µM.

ACTVDVCELTGLHIPCA (Ci, Cii and Ciii cysteines covalently bound to TATA scaffold) [BCY19565] showed a Kd of 0.84 µM.

In the case of ACQVDVCALTGIQIPCA (Ci, Cii and Ciii cysteines covalently bound to TATA scaffold) [BCY19455], the Kd is reported as 14.9 µM.

Work on ACHTPDWSDFCAGRYCA (Ci, Cii and Ciii cysteines covalently bound to TBCU scaffold) [BCY16581] yielded a Kd of 8.04 µM.

ACDGNFCDNRYVTQRCA (Ci, Cii and Ciii cysteines covalently bound to TBMT scaffold) [BCY17635] showed a Kd of 40.3 µM.

HSLICVTDFCNNRYVVNRCMHSQ (Ci, Cii and Ciii cysteines covalently bound to TBMT scaffold) [BCY18987] gave a Kd of 0.0097 µM.

Work on MPTSCVTDFCNNRYVVNRCA (Ci, Cii and Ciii cysteines covalently bound to TBMT scaffold) [BCY18984] yielded a Kd of 0.0728 µM.

For EKQYCTTDFCNNRYVVNRCA (Ci, Cii and Ciii cysteines covalently bound to TBMT scaffold) [BCY18977], the Kd was 0.0223 µM.

Binder ACNTWCMDNDRIYFNCA (Ci, Cii and Ciii cysteines covalently bound to TBMT scaffold) [BCY16574] has a Kd of 1.03 µM.

With LEQICVTDFCNNRYVVNRCA (Ci, Cii and Ciii cysteines covalently bound to TBMT scaffold) [BCY18985] the Kd was 0.0281 µM.

B1: BCY20265 (peptide)
peptide: ACSTDVCKLTGIAIPCA
modifications: N-terminal acetyl (Ac); Ci, Cii and Ciii cysteines covalently bound to TATA scaffold
Work on B1 yielded a Kd of 0.0025 µM.

B2: BCY20266 (peptide)
peptide: ACMQNPCRWVNIPCA
modifications: N-terminal acetyl (Ac); Ci, Cii and Ciii cysteines covalently bound to TATA scaffold
For B2, the Kd was 0.0097 µM.

LSQPCLTDFCNNRYVVNRCA (Ci, Cii and Ciii cysteines covalently bound to TBMT scaffold) [BCY18991] showed a Kd of 0.0106 µM.

ACTTDFCNNRYVVNLCQNKS (Ci, Cii and Ciii cysteines covalently bound to TBMT scaffold) [BCY18982] was tested, and the Kd was 0.0797 µM.

With ACWTDFCNNRYIVNTCA (Ci, Cii and Ciii cysteines covalently bound to TBMT scaffold) [BCY17624] the Kd was 0.0563 µM.

HSLICVTDFCNNRYVVNRCA (Ci, Cii and Ciii cysteines covalently bound to TBMT scaffold) [BCY18986] was tested, and the Kd was 0.0106 µM.

Work on ACNGDFCNNRYIVNTCA (Ci, Cii and Ciii cysteines covalently bound to TBMT scaffold) [BCY17625] yielded a Kd of 0.0276 µM.

ACIVGYCPATDDFCA (Ci, Cii and Ciii cysteines covalently bound to TBMT scaffold) [BCY16571] was tested, and the Kd was 0.797 µM.

ACEGDFCDGRYIVNTCA (Ci, Cii and Ciii cysteines covalently bound to TBMT scaffold) [BCY17627] was tested, and the Kd was 0.0369 µM.

ACSRANNYCDWWKCA (Ci, Cii and Ciii cysteines covalently bound to TBCU scaffold) [BCY16578] was tested, and the Kd was 22.3 µM.

With ACTTDFCNDRYIINPCA (Ci, Cii and Ciii cysteines covalently bound to TBMT scaffold) [BCY17631] the Kd was 0.321 µM.

In the case of ACLPLGARCQWGRTCA (Ci, Cii and Ciii cysteines covalently bound to TATA scaffold) [BCY16576], the Kd is reported as 0.593 µM.

In the case of ACLPLGARCQWSRTCA (Ci, Cii and Ciii cysteines covalently bound to TATA scaffold) [BCY17647], the Kd is reported as 0.548 µM.

For KSQRCMTDFCNNRYVVNRCA (Ci, Cii and Ciii cysteines covalently bound to TBMT scaffold) [BCY18993], the Kd was 0.0238 µM.

B3: BCY20263 (peptide)
peptide: ACTTDFCNNRYVVNRCA
modifications: N-terminal acetyl (Ac); Ci, Cii and Ciii cysteines covalently bound to TBMT scaffold
Work on B3 yielded a Kd of 0.0118 µM.

Work on ACFRGYCPQTNLFCA (Ci, Cii and Ciii cysteines covalently bound to TBMT scaffold) [BCY16573] yielded a Kd of 0.728 µM.

Work on ACTTDFCNNRYVVNRCA (Ci, Cii and Ciii cysteines covalently bound to TBMT scaffold) [BCY17628] yielded a Kd of 0.0166 µM.

B4: BCY20264 (peptide)
peptide: ACWTDFCNNRYVVNRCA
modifications: N-terminal acetyl (Ac); Ci, Cii and Ciii cysteines covalently bound to TBMT scaffold
B4 was tested, and the Kd was 0.0101 µM.

In the case of ACTSYFCNNRFTLNTCA (Ci, Cii and Ciii cysteines covalently bound to TBMT scaffold) [BCY16566], the Kd is reported as 1.11 µM.

With ACHVDVCLITGVNIPCA (Ci, Cii and Ciii cysteines covalently bound to TATA scaffold) [BCY19567] the Kd was 2.25 µM.

ACNAWFCDGRFYMCA (Ci, Cii and Ciii cysteines covalently bound to TBCU scaffold) [BCY16569] gave a Kd of 4.27 µM.

With ACYVGYCPATDTFCA (Ci, Cii and Ciii cysteines covalently bound to TBMT scaffold) [BCY17638] the Kd was 0.805 µM.

Work on ACTKGYCPLTDMFCA (Ci, Cii and Ciii cysteines covalently bound to TBMT scaffold) [BCY17639] yielded a Kd of 1.25 µM.

ACSIGYCPVTDTFCA (Ci, Cii and Ciii cysteines covalently bound to TBMT scaffold) [BCY17641] gave a Kd of 1.74 µM.

ACSVDVCAITGVHIPCA (Ci, Cii and Ciii cysteines covalently bound to TATA scaffold) [BCY19566] showed a Kd of 3.26 µM.

ACTNRNFCQNRYSVTCA (Ci, Cii and Ciii cysteines covalently bound to TBCU scaffold) [BCY16568] gave a Kd of 8.16 µM.

For RRAVCTTDFCNNRYVVNRCA (Ci, Cii and Ciii cysteines covalently bound to TBMT scaffold) [BCY18976], the Kd was 0.0197 µM.

For ACTTDFCNNRYVVNRCDDYH (Ci, Cii and Ciii cysteines covalently bound to TBMT scaffold) [BCY18972], the Kd was 0.0222 µM.

ACTTDFCNNRYVVNRCEALE (Ci, Cii and Ciii cysteines covalently bound to TBMT scaffold) [BCY18970] was tested, and the Kd was 0.0293 µM.

ACTVDVCAITGVQIPCA (Ci, Cii and Ciii cysteines covalently bound to TATA scaffold) [BCY19568] gave a Kd of 1.87 µM.

ACVHDVCALTGIHIPCA (Ci, Cii and Ciii cysteines covalently bound to TATA scaffold) [BCY19453] was tested, and the Kd was 4.24 µM.

With KTEYCETDFCNNRYVVNRCA (Ci, Cii and Ciii cysteines covalently bound to TBMT scaffold) [BCY18988] the Kd was 0.0291 µM.

With ACQYTFCENRYKICA (Ci, Cii and Ciii cysteines covalently bound to TATA scaffold) [BCY16564] the Kd was 2.08 µM.

ACKRGYCPVTDTFCA (Ci, Cii and Ciii cysteines covalently bound to TBMT scaffold) [BCY17640] was tested, and the Kd was 43 µM.

ACDGNFCDNRYVVNRCA (Ci, Cii and Ciii cysteines covalently bound to TBMT scaffold) [BCY17636] gave a Kd of 1.73 µM.

Work on ACDKWQLGCRITYKCA (Ci, Cii and Ciii cysteines covalently bound to TATA scaffold) [BCY16575] yielded a Kd of 1.02 µM.

Binder ACSTDVCKLTGIAIPCA (Ci, Cii and Ciii cysteines covalently bound to TATA scaffold) [BCY18169] has a Kd of 1.6 µM.

LARDCGTDFCNNRYVVNRCA (Ci, Cii and Ciii cysteines covalently bound to TBMT scaffold) [BCY18989] gave a Kd of 0.0265 µM.

ACMHDVCVLTGVNIPCA (Ci, Cii and Ciii cysteines covalently bound to TATA scaffold) [BCY19563] showed a Kd of 1.51 µM.

Binder ACTTDFCNNRYVVNQCQEQS (Ci, Cii and Ciii cysteines covalently bound to TBMT scaffold) [BCY18983] has a Kd of 2.45 µM.

QYESCTTDFCNNRYVVNRCGSDN (Ci, Cii and Ciii cysteines covalently bound to TBMT scaffold) [BCY18979] showed a Kd of 0.108 µM.

ACPQTYCFINNRYCA (Ci, Cii and Ciii cysteines covalently bound to TBMT scaffold) [BCY16567] was tested, and the Kd was 1.01 µM.

ACDGNFCDNRYIVNTCA (Ci, Cii and Ciii cysteines covalently bound to TBMT scaffold) [BCY17626] gave a Kd of 0.263 µM.

With ACTTDFCNNRYVVNRCGSDN (Ci, Cii and Ciii cysteines covalently bound to TBMT scaffold) [BCY18971] the Kd was 0.0279 µM.

ACTHDVCVLTGISIPCA (Ci, Cii and Ciii cysteines covalently bound to TATA scaffold) [BCY19564] gave a Kd of 2 µM.

With RRAVCTTDFCNNRYVVNRCDDYH (Ci, Cii and Ciii cysteines covalently bound to TBMT scaffold) [BCY18978] the Kd was 0.0402 µM.

NQLPCLTDFCNNRYVVNQCQEQS (Ci, Cii and Ciii cysteines covalently bound to TBMT scaffold) [BCY18994] was tested, and the Kd was 6.89 µM.

In the case of ACTTDFCNSRYIVNTCA (Ci, Cii and Ciii cysteines covalently bound to TBMT scaffold) [BCY16570], the Kd is reported as 0.442 µM.

ACSRGYCPRTNTFCA (Ci, Cii and Ciii cysteines covalently bound to TBMT scaffold) [BCY17637] showed a Kd of 1.05 µM.

ACSEGWCFRENRYQVCA (Ci, Cii and Ciii cysteines covalently bound to TATA scaffold) [BCY16565] was tested, and the Kd was 1.34 µM.

Work on ACKTYCFMENRYSLSCA (Ci, Cii and Ciii cysteines covalently bound to TBMT scaffold) [BCY16563] yielded a Kd of 1.54 µM.

Source: patent US20240083945A1 (Bicycle, published 2024)
